According to publication doi:10.1101/715409 (bioRxiv, 2019):

T1: GST fusion to Boi1 (1-203) (Saccharomyces cerevisiae, UniProt P38041 1-203)
T1 sequence: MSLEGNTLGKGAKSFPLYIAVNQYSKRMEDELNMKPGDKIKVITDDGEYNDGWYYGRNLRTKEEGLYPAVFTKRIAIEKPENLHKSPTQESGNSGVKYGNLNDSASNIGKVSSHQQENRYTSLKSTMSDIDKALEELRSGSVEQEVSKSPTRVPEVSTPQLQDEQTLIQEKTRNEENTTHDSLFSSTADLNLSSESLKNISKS

B1: GST fusion to Boi_(77-178) (domain or fragment)
chain: IEKPENLHKSPTQESGNSGVKYGNLNDSASNIGKVSSHQQENRYTSLKSTMSDIDKALEELRSGSVEQEVSKSPTRVPEVSTPQLQDEQTLIQEKTRNEENT
B2: 6xHis Bud6_(1-141) (domain or fragment)
chain: MKMAVDDPTYGTPKIKRTASSSSSIETTVTKLLMSTKHLLQVLTQWSKGTTSGRLVSDAYVQLGNDFKVVSKFFMHAKVDMSDVGDVPMALRRVLEVTLREPPSDETLNKHLPKIREIIVTLLDKLKVKQAILKNMQQEHR

Assays:
[1] = biological target: B2; experiment: pull-down
[2] = biological target: T1, GST fusion to Boi1 (1-203); experiment: pull-down

binding result [1]	binding result [2]	Binder
binds		B1
	binds	B2
